Starred links: 1 amine or outer side, 2 acyl side, 3 side chain; linkers in the order of their positions; H or OH if unused. Positions of bridges follow the written chain, without caps; N, C: chain ends. Non-standard residues stand in square brackets, D forms with d. Primed or numbered codes have the meaning given here. B5(10) = 2-amino-2-(pent-4-en-1-yl)hept-6-enoic acid, bis(4-pentenyl)glycine, stitching residue bearing both staples, C=CCCCC(CCCC=C)(N[*:1])C(=O)[*:2]; PyrS2″ = (S)-3-amino-1-((pent-4-en-1-yloxy)carbonyl)pyrrolidine-3-carboxylic acid (stapling residue), C=CCCCOC(=O)N1CC[C@@](N[*:1])(C(=O)[*:2])C1; B5(4) = 2,2-bis(4-pentenyl)glycine = 2-amino-2-(pent-4-en-1-yl)hept-6-enoic acid (stitching residue), C=CCCCC(CCCC=C)(N[*:1])C(=O)[*:2]; B5(33) = 2-amino-2-(pent-4-en-1-yl)hept-6-enoic acid (bis-pentenylglycine, two olefin side chains), C=CCCCC(CCCC=C)(N[*:1])C(=O)[*:2]; B5(21) = 2-amino-2-(pent-4-en-1-yl)hept-6-enoic acid, bis(4-pentenyl)glycine (stitching residue), C=CCCCC(CCCC=C)(N[*:1])C(=O)[*:2]; SeN = (S)-5-(((allyloxy)carbonyl)(methyl)amino)-2-amino-2-methylpentanoic acid, C=CCOC(=O)N(C)CCC[C@](C)(N[*:1])C(=O)[*:2]; Qui = (S)-2-amino-3-(quinolin-2-yl)propanoic acid, O=C([C@H](Cc1ccc2ccccc2n1)N[*:1])[*:2]; B5 = 2-amino-2-(pent-4-en-1-yl)hept-6-enoic acid, C=CCCCC(CCCC=C)(N[*:1])C(=O)[*:2]; B5(28) = 2,2-bis(4-pentenyl)glycine, C=CCCCC(CCCC=C)(N[*:1])C(=O)[*:2]; Phe(3-COOH) = N[C@@H](Cc1cccc(C(=O)O)c1)C(=O)O; Phe(2-CF3) = N[C@@H](Cc1ccccc1C(F)(F)F)C(=O)O; S7 = C[C@@](CCCCCC=[*:3])(N[*:1])C(=O)[*:2]; 2Nal = N[C@@H](Cc1ccc2ccccc2c1)C(=O)O; αAllylPro = C=CC[C@@]1(C(=O)O)CCCN1; tBuAla = CC(C)(C)C[C@H](N)C(=O)O; Aad = N[C@@H](CCCC(=O)O)C(=O)O; S8 = C=CCCCCCC[C@](C)(N)C(=O)O; Aib = CC(C)(N)C(=O)O
T1: B-cat-Halo (beta-catenin HaloTag fusion expressed in HEK293 cells) (Homo sapiens (Human), UniProt P35222 1-781)
T1 sequence: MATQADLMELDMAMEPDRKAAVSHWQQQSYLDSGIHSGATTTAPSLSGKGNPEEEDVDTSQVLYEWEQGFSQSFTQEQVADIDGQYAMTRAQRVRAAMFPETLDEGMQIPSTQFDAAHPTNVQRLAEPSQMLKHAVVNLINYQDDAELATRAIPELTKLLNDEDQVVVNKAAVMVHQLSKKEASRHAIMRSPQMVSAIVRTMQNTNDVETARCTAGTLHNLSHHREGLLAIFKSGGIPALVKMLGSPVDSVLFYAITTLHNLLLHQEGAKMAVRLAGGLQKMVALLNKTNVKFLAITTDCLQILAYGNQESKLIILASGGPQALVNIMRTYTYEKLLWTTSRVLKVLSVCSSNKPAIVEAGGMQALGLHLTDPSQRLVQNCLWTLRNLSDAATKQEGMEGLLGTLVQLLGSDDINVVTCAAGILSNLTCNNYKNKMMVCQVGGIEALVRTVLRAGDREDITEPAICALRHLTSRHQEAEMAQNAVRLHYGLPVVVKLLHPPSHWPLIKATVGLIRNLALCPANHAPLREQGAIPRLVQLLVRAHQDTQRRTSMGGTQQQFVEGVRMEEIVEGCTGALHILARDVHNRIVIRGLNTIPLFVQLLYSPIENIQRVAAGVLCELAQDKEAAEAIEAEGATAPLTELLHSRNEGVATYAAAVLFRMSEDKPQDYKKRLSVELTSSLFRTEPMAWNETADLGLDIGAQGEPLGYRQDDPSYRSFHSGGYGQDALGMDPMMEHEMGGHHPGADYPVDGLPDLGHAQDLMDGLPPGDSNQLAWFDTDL

T2: beta-catenin (full-length, Uniprot ID P35222) (Homo sapiens (Human), UniProt P35222 2-781)
T2 construct: The FP protocol says 'full-length beta-Catenin (Uniprot ID P35222)'; also called bCat; B-Catenin
T2 sequence: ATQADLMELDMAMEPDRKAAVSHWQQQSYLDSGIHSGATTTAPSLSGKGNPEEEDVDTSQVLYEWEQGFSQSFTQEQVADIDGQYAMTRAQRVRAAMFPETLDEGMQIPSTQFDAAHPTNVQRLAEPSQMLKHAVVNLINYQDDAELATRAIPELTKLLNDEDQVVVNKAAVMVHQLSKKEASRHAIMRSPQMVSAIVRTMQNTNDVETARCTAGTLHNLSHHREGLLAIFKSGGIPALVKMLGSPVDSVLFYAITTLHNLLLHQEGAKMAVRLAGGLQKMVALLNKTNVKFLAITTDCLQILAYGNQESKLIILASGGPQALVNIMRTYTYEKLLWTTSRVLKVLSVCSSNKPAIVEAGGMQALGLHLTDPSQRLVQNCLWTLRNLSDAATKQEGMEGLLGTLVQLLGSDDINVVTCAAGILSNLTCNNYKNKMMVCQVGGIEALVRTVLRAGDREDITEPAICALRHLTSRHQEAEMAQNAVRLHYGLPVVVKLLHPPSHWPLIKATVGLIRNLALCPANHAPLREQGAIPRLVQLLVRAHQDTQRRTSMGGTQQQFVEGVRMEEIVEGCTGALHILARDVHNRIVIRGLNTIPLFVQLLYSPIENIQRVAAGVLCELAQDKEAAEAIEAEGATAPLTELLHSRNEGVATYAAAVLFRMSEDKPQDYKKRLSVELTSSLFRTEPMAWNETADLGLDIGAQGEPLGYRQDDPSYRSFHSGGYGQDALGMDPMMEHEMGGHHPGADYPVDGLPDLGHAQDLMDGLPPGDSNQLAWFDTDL


Target: T1, B-cat-Halo (beta-catenin HaloTag fusion …)
Test: cell-based or functional assay

Row | Binder | NanoBRET Abs IC50
1 | Ac-[αAllylPro]D[tBuAla][B5(4)]D[Phe(3-COOH)]QAFL[PyrS2″][Phe(2-CF3)][2Nal]A-NH2 (staple 1-4, 4-11) [I-2461] | 25400 nM
2 | Ac-[αAllylPro]D[tBuAla][B5(4)]D[Phe(3-COOH)]AAFL[PyrS2″][Phe(2-CF3)][RbMe2NapA]Q-NH2 (staple 1-4, 4-11) [I-2462] | 4700 nM

Target: T2, beta-catenin (full-length, Uniprot ID …)
Test: fluorescence polarization competition vs 5FAM-TCF4(10-53) on full-length beta-catenin
Protocol: The plate was incubated protected from light for 60 minutes at 20° C. prior to read. Reads were performed on a CLARIOstar plate reader (BMG Labtech) in duplicate, and data were fitted to a 1:1 binding model with hill slope using an in-house script. All provided concentrations are final concentrations.

Row | Binder | IC50
3 | Ac-[αAllylPro]DA[B5(28)]DEAAFV[S8]FW[Aib]-NH2 (staple 1-4, 4-11, Stapled peptide) [I-134: Ac-PL3-Asp-Ala-B5-Asp-Glu-Ala-Ala-Phe-Val-S8-Phe-Trp-Aib-NH2] | 2700 nM
4 | Ac-[αAllylPro]DA[B5]DEAAFV[S7]FWQ-NH2 (staple 1-4, 4-11, Stapled peptide) [I-132: Ac-PL3-Asp-Ala-B5-Asp-Glu-Ala-Ala-Phe-Val-S7-Phe-Trp-Gln-NH2] | 5000 nM
5 | Ac-[αAllylPro]DA[B5(4)]DEAAFV[S8]FWQ-NH2 (staple 1-4, 4-11, Stapled (stitched) peptide) [I-123: Ac-PL3-Asp-Ala-B5-Asp-Glu-Ala-Ala-Phe-Val-S8-Phe-Trp-Gln-NH2] | 2110 nM
6 | Ac-[αAllylPro]DA[B5(33)]DNAAFV[S8]FWQ-NH2 (staple 1-4, 4-11, Stapled peptide) [I-125: Ac-PL3-Asp-Ala-B5-Asp-Asn-Ala-Ala-Phe-Val-S8-Phe-Trp-Gln-NH2] | 3060 nM
7 | Ac-[αAllylPro]DA[B5(4)]DEAAFV[S8]FWA-NH2 (staple 1-4, 4-11, Stapled peptide) [I-135: Ac-PL3-Asp-Ala-B5-Asp-Glu-Ala-Ala-Phe-Val-S8-Phe-Trp-Ala-NH2] | 1870 nM
8 | XDAXDQAAFVXFWQ (not fully specified; N-terminal Ac; PL3 at 1; B5 at 4; S8 at 11; C-terminal NH2; stapled by olefin metathesis (PL3-B5 and B5-S8), Stapled peptide) [I-127: Ac-PL3-Asp-Ala-B5-Asp-Gln-Ala-Ala-Phe-Val-S8-Phe-Trp-Gln-NH2] | 4840 nM
9 | Ac-[αAllylPro]DA[B5(10)]D[Aad]AAFV[S8]FWQ-NH2 (staple 1-4, 4-11, Stapled peptide) [I-129: Ac-PL3-Asp-Ala-B5-Asp-Aad-Ala-Ala-Phe-Val-S8-Phe-Trp-Gln-NH2] | 1980 nM
10 | Ac-[αAllylPro]DA[B5(4)]DEAAFV[SeN]FWQ-NH2 (staple 1-4, 4-11, Stapled peptide) [I-131: Ac-PL3-Asp-Ala-B5-Asp-Glu-Ala-Ala-Phe-Val-SeN-Phe-Trp-Gln-NH2] | 2160 nM
11 | Ac-[αAllylPro]DA[B5(21)]DEAAFV[S8]F[2Nal]Q-NH2 (staple 1-4, 4-11, Stapled peptide) [I-140: Ac-PL3-Asp-Ala-B5-Asp-Glu-Ala-Ala-Phe-Val-S8-Phe-2NapA-Gln-NH2] | 2270 nM
12 | XDAXDEAAFVXFWX (not fully specified; N-terminal Ac; PL3 at 1; B5 at 4; S8 at 11; Aib at 14; C-terminal NH2; stapled by olefin metathesis (PL3-B5 and B5-S8), Stapled peptide) [I-133: Ac-PL3-Asp-Ala-B5-Asp-Glu-Ala-Ala-Phe-Val-S8-Phe-Trp-Aib-NH2] | 5000 nM
13 | Ac-[αAllylPro]DA[B5(4)]DEAAFV[S8]F[Qui]Q-NH2 (staple 1-4, 4-11, Stapled peptide) [I-143: Ac-PL3-Asp-Ala-B5-Asp-Glu-Ala-Ala-Phe-Val-S8-Phe-Qui-Gln-NH2] | 2270 nM
